# Measurements taken from US20060228367A1 (AstraZeneca / MedImmune, published 2006).
# Substitutions are numbered along the chain they refer to. Where two headings read alike, the source gives them in different places.
# B1: monoclonal antibody 168-A5-338-284 (antibody, V domains shown)
# VH: QVQLKESGPGLVAPSQSLSITCTVSGFSLSSYGVHWVRQSPGKGLEWLGVMWGDGSTNYHSGLISRLTISKDSSKSQVFLKLNSLQTDDTATYYCGKSFGVYAVDYWGQGTSVTVSS
# VL: DIQMTQTTSSLSASLGDRVTINCRASQDVNNYLNWYQQKPDGTVKLLIYYTSMLHSGVPSRFSGSGSETDYSLTITNLEQEDIATYFCQQGETLPPTFGGGTKVEIK
# notes: Mouse hybridoma antibody purified on protein A; also called mAb338
# B2: monoclonal antibody 168-A5-234-114 (antibody, V domains shown)
# VH: B1 VH with S30T, S31D, H35S, S40P, M51I, S56N, G62A, T68S, S73N, V104M
# VL: B1 VL with D1E, A25T, V29T, L33I, E68G, T76S, E92D
# notes: Mouse hybridoma antibody purified on protein A; also called mAb234; mAb 234
# How the values were obtained:
# [1] = molecular target: T1, soluble histidine-tagged hMPV F protein from NL\1\99 (human metapneumovirus, isolate NL/1/99, UniProt Q6WB98 19-490); assay: Biacore SPR (comparison table; virus type B)
# T1 construct: also called sFNL\1\99; soluble FNL\1\99
# [2] = molecular target: T2, soluble histidine-tagged hMPV F protein from NL\1\00 (human metapneumovirus, isolate NL/1/00, UniProt Q6WB98 19-490); assay: Biacore 3000 SPR; antigen immobilised on CM5 at 134 RU, mAb injected
# T2 construct: the reverse primer ends the F part at ...AEKGNTG before the tag; also called sFNL\1\00; soluble FNL\1\00
# [3] = molecular target: T2, soluble histidine-tagged hMPV F protein …; assay: Biacore SPR (summary table)
# [4] = molecular target: T1, soluble histidine-tagged hMPV F protein …; assay: Biacore SPR (summary table)
# [5] = molecular target: T2, soluble histidine-tagged hMPV F protein …; assay: Biacore SPR; F-00-1 immobilised at 134 RU, mAb injected
# [6] = molecular target: T2, soluble histidine-tagged hMPV F protein …; assay: Biacore SPR (comparison table; virus type A)
# [7] = molecular target: T3, F protein of hMPV strain NL\17\00 (subtype A2), on virus (human metapneumovirus, isolate NL/17/00, UniProt Q6WB98 19-539); assay: cell-based or functional assay
# [8] = molecular target: T4, F protein of hMPV strain NL\1\94 (subtype B2), on virus (human metapneumovirus, isolate NL/1/94, UniProt Q6WB98 19-539); assay: cell-based or functional assay
# [9] = molecular target: T5, F protein of hMPV strain NL\1\99 (subtype B1), on virus (human metapneumovirus, isolate NL/1/99, UniProt Q6WB98 19-539); assay: cell-based or functional assay
# [10] = molecular target: T6, F protein of hMPV strain NL\1\00 (subtype A1), on virus (human metapneumovirus, isolate NL/1/00, UniProt Q6WB98 19-538); assay: cell-based or functional assay
# [11] = molecular target: T3, F protein of hMPV strain NL\17\00 …; assay: cell-based or functional assay; remark: listed apart in the source
# [12] = molecular target: T4, F protein of hMPV strain NL\1\94 …; assay: cell-based or functional assay; remark: listed apart in the source
# [13] = molecular target: T5, F protein of hMPV strain NL\1\99 …; assay: cell-based or functional assay; remark: listed apart in the source
# [14] = molecular target: T6, F protein of hMPV strain NL\1\00 …; assay: cell-based or functional assay; remark: listed apart in the source
# [15] = molecular target: T1, soluble histidine-tagged hMPV F protein …; assay: Biacore SPR; F-99-1 immobilised at 80 RU, mAb injected
# [16] = molecular target: T5, F protein of hMPV strain NL\1\99 …; assay: cell-based or functional assay; remark: listed apart in the source
# [17] = molecular target: T6, F protein of hMPV strain NL\1\00 …; assay: cell-based or functional assay; remark: listed apart in the source
# [18] = molecular target: T1, soluble histidine-tagged hMPV F protein …; assay: Biacore SPR; average of the two F-99-1 surfaces
# [19] = molecular target: T3, F protein of hMPV strain NL\17\00 …; assay: cell-based or functional assay; remark: listed apart in the source
# [20] = molecular target: T4, F protein of hMPV strain NL\1\94 …; assay: cell-based or functional assay; remark: listed apart in the source
# [21] = molecular target: T5, F protein of hMPV strain NL\1\99 …; assay: cell-based or functional assay; remark: listed apart in the source
# [22] = molecular target: T6, F protein of hMPV strain NL\1\00 …; assay: cell-based or functional assay; remark: listed apart in the source
# [23] = molecular target: T1, soluble histidine-tagged hMPV F protein …; assay: Biacore SPR; F-99-1 immobilised at 300 RU, mAb injected
# [24] = molecular target: T1, soluble histidine-tagged hMPV F protein …; assay: Biacore 3000 SPR; antigen immobilised on CM5 at 80 RU, mAb injected
# [25] = molecular target: T1, soluble histidine-tagged hMPV F protein …; assay: Biacore SPR; F-99-1 immobilised at 146 RU, mAb injected
binder,measurement,setting,value
B1,Kd,[1],1.42 nM
same,kon,[1],192000 M⁻¹ s⁻¹
same,Kd,[2],1.74 nM
same,koff,[2],0.000276 s⁻¹
same,kon,[2],158000 M⁻¹ s⁻¹
same,Kd,[3],1.7 nM
same,Kd,[4],1.4 nM
same,Kd,[5],1.74 nM
same,koff,[5],0.000276 s⁻¹
same,kon,[5],158000 M⁻¹ s⁻¹
same,Kd,[6],1.74 nM
same,kon,[6],158000 M⁻¹ s⁻¹
same,IC50 (virus neutralization),[7],0.8 µg/mL
same,IC50 (virus neutralization),[8],0.17 µg/mL
same,IC50 (virus neutralization),[9],0.03 µg/mL
same,IC50 (virus neutralization),[10],0.38 µg/mL
same,IC50 (neutralization titer),[11],5.4 nM
same,IC50 (neutralization titer),[12],1.1 nM
same,IC50 (neutralization titer),[13],0.2 nM
same,IC50 (neutralization titer),[14],2.5 nM
same,Kd,[15],1.42 nM
same,koff,[15],0.000272 s⁻¹
same,kon,[15],192000 M⁻¹ s⁻¹
same,IC50 in vitro neutralization,[16],0.03 µg/mL
same,IC50 in vitro neutralization,[17],0.4 µg/mL
same,Kd,[18],1.73 nM
same,koff,[18],0.000282 s⁻¹
same,kon,[18],163000 M⁻¹ s⁻¹
same,IC50 (neutralization titer),[19],0.81 µg/mL
same,IC50 (neutralization titer),[20],0.165 µg/mL
same,IC50 (neutralization titer),[21],0.03 µg/mL
same,IC50 (neutralization titer),[22],0.375 µg/mL
same,Kd,[23],2.18 nM
same,koff,[23],0.000293 s⁻¹
same,kon,[23],134000 M⁻¹ s⁻¹
same,Kd,[24],1.42 nM
same,koff,[24],0.000272 s⁻¹
same,kon,[24],192000 M⁻¹ s⁻¹
B2,Kd,[1],2.41 nM
same,kon,[1],192000 M⁻¹ s⁻¹
same,Kd,[2],4.49 nM
same,koff,[2],0.000352 s⁻¹
same,kon,[2],78300 M⁻¹ s⁻¹
same,Kd,[3],4.5 nM
same,Kd,[4],2.4 nM
same,Kd,[5],4.49 nM
same,koff,[5],0.000352 s⁻¹
same,kon,[5],78300 M⁻¹ s⁻¹
same,Kd,[6],4.49 nM
same,kon,[6],783000 M⁻¹ s⁻¹
same,IC50 (virus neutralization),[7],1.2 µg/mL
same,IC50 (virus neutralization),[8],0.18 µg/mL
same,IC50 (virus neutralization),[9],0.01 µg/mL
same,IC50 (virus neutralization),[10],0.59 µg/mL
same,IC50 (neutralization titer),[11],7.7 nM
same,IC50 (neutralization titer),[12],1.2 nM
same,IC50 (neutralization titer),[13],0.05 nM
same,IC50 (neutralization titer),[14],3.9 nM
same,Kd,[15],2.41 nM
same,koff,[15],0.000463 s⁻¹
same,kon,[15],192000 M⁻¹ s⁻¹
same,IC50 in vitro neutralization,[16],0.01 µg/mL
same,IC50 in vitro neutralization,[17],0.6 µg/mL
same,Kd,[18],2.83 nM
same,koff,[18],0.000382 s⁻¹
same,kon,[18],135000 M⁻¹ s⁻¹
same,IC50 (neutralization titer),[19],1.16 µg/mL
same,IC50 (neutralization titer),[20],0.18 µg/mL
same,IC50 (neutralization titer),[21],0.0075 µg/mL
same,IC50 (neutralization titer),[22],0.585 µg/mL
same,Kd,[24],2.41 nM
same,koff,[24],0.000463 s⁻¹
same,kon,[24],192000 M⁻¹ s⁻¹
same,Kd,[25],3.83 nM
same,koff,[25],0.000302 s⁻¹
same,kon,[25],78900 M⁻¹ s⁻¹
